Data reported in paper PMC11742489.
“And” between values parts separate entries of the source, which are not always exact repeats. Equal values may be shown once.

Target: Ca2+/CaM
Experiment: ITC; Cav1.2-NSCaTE peptide (20-fold molar excess) injected into CaM (~50 uM); 50 mM HEPES, 100 mM KCl, 2 mM MgCl2, pH 7.5, 5 mM CaCl2 (Ca2+-saturating); 20°C by the legend, 25°C by the methods; one-site binding model

Q: Cav1.2-NSCaTE(51-67) peptide was tested. Which stoichiometry N did it give?
A: 2 and 1.7
